Measurements: patent US20160311881A1 (Eli Lilly, published 2016)
Non-standard residues stand in square brackets, D forms with d. No end group written: not given here. Aib = CC(C)(N)C(=O)O

Legend:
[1] = target: T1, human glucagon-like peptide 1 receptor (hGLP-1R) (human, UniProt P43220 24-463); test: SPA competition against 125I-labelled GLP-1 amide on hGLP-1R membranes; Cheng-Prusoff
T1 construct: whole, on cells; The assay used crude plasma membranes of the expressing 293HEK cells

[2] = target: T2, human glucagon receptor (hGR) (human, UniProt P47871 26-477); test: cell-based or functional assay
[3] = target: T2, human glucagon receptor (hGR); test: SPA competition against 125I-labelled glucagon on hGR membranes; Cheng-Prusoff
Description: Plates are sealed, mixed end over end, and read with a MicroBeta® scintillation counter after 12 hours of settling time at room temperature.

[4] = target: T3, mouse glucagon receptor (mGR) (mouse, UniProt Q61606 27-485); test: SPA competition against 125I-labelled glucagon on mGR membranes; Cheng-Prusoff
T3 construct: whole, on cells; The assay used crude plasma membranes of the expressing 293HEK cells

[5] = target: T4, human glucose-dependent insulinotropic peptide receptor (GIP-R) (human, UniProt P48546 22-466); test: SPA competition against 125I-labelled GIP on human GIP-R membranes; Cheng-Prusoff
T4 construct: whole, on cells; The assay used crude plasma membranes of the expressing CHO-S cells; also called human GIP-R; hGIP-R
T4 sequence (looked up): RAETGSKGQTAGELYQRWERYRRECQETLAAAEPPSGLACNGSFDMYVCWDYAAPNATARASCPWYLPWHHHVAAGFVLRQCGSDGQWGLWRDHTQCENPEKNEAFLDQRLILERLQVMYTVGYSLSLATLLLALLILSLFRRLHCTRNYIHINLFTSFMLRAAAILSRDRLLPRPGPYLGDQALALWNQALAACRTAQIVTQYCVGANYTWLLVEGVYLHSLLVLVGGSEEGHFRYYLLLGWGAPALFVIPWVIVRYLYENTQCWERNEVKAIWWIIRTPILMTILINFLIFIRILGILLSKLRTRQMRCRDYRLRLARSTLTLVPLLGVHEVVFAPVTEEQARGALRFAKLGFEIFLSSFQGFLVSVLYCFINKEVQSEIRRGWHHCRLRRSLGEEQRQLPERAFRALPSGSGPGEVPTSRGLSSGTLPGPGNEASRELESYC

T2 sequence (P47871 26-477): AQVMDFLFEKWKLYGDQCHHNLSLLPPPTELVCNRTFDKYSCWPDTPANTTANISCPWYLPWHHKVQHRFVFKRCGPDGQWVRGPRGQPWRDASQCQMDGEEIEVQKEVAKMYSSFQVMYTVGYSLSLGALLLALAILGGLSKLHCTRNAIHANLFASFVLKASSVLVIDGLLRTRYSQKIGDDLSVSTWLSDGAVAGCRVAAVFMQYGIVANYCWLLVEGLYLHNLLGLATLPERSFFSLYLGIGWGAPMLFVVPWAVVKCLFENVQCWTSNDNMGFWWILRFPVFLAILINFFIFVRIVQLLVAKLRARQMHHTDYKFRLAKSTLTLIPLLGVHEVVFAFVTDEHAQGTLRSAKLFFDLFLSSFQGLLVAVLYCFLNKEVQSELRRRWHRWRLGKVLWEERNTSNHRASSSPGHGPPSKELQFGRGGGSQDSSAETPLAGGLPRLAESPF
T3 sequence (Q61606 27-485): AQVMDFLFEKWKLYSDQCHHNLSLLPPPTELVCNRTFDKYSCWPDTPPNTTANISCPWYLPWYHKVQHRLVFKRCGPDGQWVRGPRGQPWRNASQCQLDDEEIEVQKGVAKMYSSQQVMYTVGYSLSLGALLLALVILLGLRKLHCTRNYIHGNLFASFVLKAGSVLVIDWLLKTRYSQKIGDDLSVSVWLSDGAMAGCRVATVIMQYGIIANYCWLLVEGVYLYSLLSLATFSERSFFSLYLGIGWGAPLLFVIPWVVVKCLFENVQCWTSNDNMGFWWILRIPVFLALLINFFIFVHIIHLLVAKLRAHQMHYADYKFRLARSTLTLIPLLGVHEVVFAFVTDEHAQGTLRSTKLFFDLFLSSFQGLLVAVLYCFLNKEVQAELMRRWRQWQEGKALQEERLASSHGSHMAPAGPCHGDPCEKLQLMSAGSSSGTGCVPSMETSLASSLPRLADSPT

B1: compound of SEQ ID NO: 2 (peptide)
peptide: HAQGTFLSDYSKYLD[Aib]KKAQEFVEWLLKTGPSSGAPPKSK-NH2
modifications: N-terminus assumed
SMILES: CC(C)C[C@H](NC(=O)[C@H](Cc1c[nH]c2ccccc12)NC(=O)[C@H](CCC(=O)O)NC(=O)[C@@H](NC(=O)[C@H](Cc1ccccc1)NC(=O)[C@H](CCC(=O)O)NC(=O)[C@H](CCC(N)=O)NC(=O)[C@H](C)NC(=O)[C@H](CCCCN)NC(=O)[C@H](CCCCN)NC(=O)C(C)(C)NC(=O)[C@H](CC(=O)O)NC(=O)[C@H](CC(C)C)NC(=O)[C@H](Cc1ccc(O)cc1)NC(=O)[C@H](CCCCN)NC(=O)[C@H](CO)NC(=O)[C@H](Cc1ccc(O)cc1)NC(=O)[C@H](CC(=O)O)NC(=O)[C@H](CO)NC(=O)[C@H](CC(C)C)NC(=O)[C@H](Cc1ccccc1)NC(=O)[C@@H](NC(=O)CNC(=O)[C@H](CCC(N)=O)NC(=O)[C@H](C)NC(=O)[C@@H](N)Cc1c[nH]cn1)[C@@H](C)O)C(C)C)C(=O)N[C@@H](CC(C)C)C(=O)N[C@@H](CCCCN)C(=O)N[C@H](C(=O)NCC(=O)N1CCC[C@H]1C(=O)N[C@@H](CO)C(=O)N[C@@H](CO)C(=O)NCC(=O)N[C@@H](C)C(=O)N1CCC[C@H]1C(=O)N1CCC[C@H]1C(=O)N[C@@H](CCCCN)C(=O)N[C@@H](CO)C(=O)N[C@@H](CCCCN)C(N)=O)[C@@H](C)O
notes: Synthetic 40-residue glucagon analog made by solid-phase synthesis on Rink amide resin
Ki [1]: 1220 nM | hGR stimulated cAMP functional assay (HTRF), relative EC50 [2]: 0.0356 nM | Ki [3]: 0.397 nM | Ki [4]: 0.494 nM | Ki [5]: 1050 nM
